Measured values from PMC6154639 (Molecules : A Journal of Synthetic Chemistry and Natural …, 2017).

Key:
PaF4′OMT = biological target: T1, PaF4′OMT (Plagiochasma appendiculatum, UniProt A0A1X9Y2Y6); test: HPLC product quantification, Michaelis-Menten fit; format: biochemical; details: substrate inhibition by luteolin; SAM as methyl donor; pH 7.5, 37 °C
T1 construct: pET32a fusion with N-terminal His6 tag kept (about 60 kDa on SDS-PAGE); E. coli BL21(DE3)
From the text: HPLC product quantification, Michaelis-Menten fit on PaF4′OMT

purified protein = substrate: O=c1cc(-c2ccc(O)cc2)oc2cc(O)cc(O)c12; test: purified protein; details: SAM as methyl donor, no Mg2+ needed, pH 7.5, 37 °C
[1] = substrate: O=c1cc(-c2ccc(O)c(O)c2)oc2cc(O)cc(O)c12; test: HPLC product quantification, Michaelis-Menten fit; format: biochemical, Plagiochasma appendiculatum; details: SAM as methyl donor, no Mg2+ needed, pH 7.5, 37 °C

Molecule	Ki (PaF4′OMT)	Km (purified protein)	Vmax (purified protein)	kcat (purified protein)	Km [1]	Vmax [1]	kcat [1]
O=c1cc(-c2ccc(O)c(O)c2)oc2cc(O)cc(O)c12 [luteolin]	292.8 ± 69.03 µM	–	–	–	–	–	–
PaF4′OMT (Plagiochasma appendiculatum) (protein, pET32a fusion with N-terminal His6 tag kept (about 60 kDa on SDS-PAGE); E. coli BL21(DE3)) MAVSTNGKTSEGVSDVSRTKNITNGNGMDMSVSANVASIGSVSATPLSPEDKRDHVVAINFLLGWVQTWALKAVVTMRIPDIISKAPMDALTAREIISQIQCKNPSNAVPLLERLMRFMVCKGFFSESVNGENEIAYELNGVSKMYVTDHEMSVVEWVNVAFHRSGIPALTRMHEAITEDVCPWDQAHGMPIYAHNPKFPELGDFFHKAMIVHSNFLTKILAEEYEGFKDFKVLVDVGGSLGNNLALILRFHPHLRGINFDMPSVIAGAPSFPGVEHVGGNFYESVPSGDAIMLMAILHNNSDENCVKILRSVHAALPEDGKLIVAEYIMTNEADHNGERIRLLDMLMLVQFRGGEERTFEHHKTLYEAAGFRHYKLIKTSGPMDIIEVRK	–	31.0 ± 5.90 µM	0.163 µmol/min/mg	0.117 s⁻¹	52.1 ± 10.54 µM	0.111 µmol/min/mg	0.08 ± 0.009 s⁻¹
